Where two headings read alike, the source gives them in different places.
Assays:
[1] = In vitro fatty acid elongation assay with yeast microsomes, 18:0 acyl-CoA substrate; format: biochemical, Saccharomyces cerevisiae; conditions: for (%) 20:0 acyl CoA / (%) 22:0 acyl CoA / (%) 24:0 acyl CoA / (%) 26:0 acyl CoA / (%) Total / Rate, 20:0 acyl CoA / Rate, 22:0 acyl CoA / Rate, 24:0 acyl CoA / Rate, 26:0 acyl CoA / Rate, Total: second experiment
Procedure: (§1) Transformed yeast cells were grown in the presence of either glucose or galactose (2% w/v) as described in Example 1. Cells were harvested by centrifugation at 5000×g for 10 min and washed with 10 ml ice cold isolation buffer (IB), which contains 80 mM Hepes-KOH, pH 7.2, 5 mM EGTA, 5 mM EDTA, 10 mM KC1, 320 mM sucrose and 2 mM DTT). Cells were then resuspended in enough IB to fill a 1.7 ml tube containing 700 μl of 0.5 μm glass beads and yeast microsomes were isolated from the cells essentially as described in Tillman, T. and Bell, R., J. Biol. Chem. 261:9144–9149 (1986). The microsomal membrane pellet was recovered by centrifugation at 252,000×g for 60 min. The pellet was rinsed by resuspending in 40 ml fresh IB and again recovered by centrifugation at 252000×g for 60 min. Microsomal pellets were resuspended in a minimal volume of IB, and the protein concentration adjusted to 2.5 μg μl^−1 by addition of IB containing 15% glycerol. Microsomes were frozen on dry ice and stored at −80° C. The protein concentration in microsomes was determined by the Bradford method (Bradford, 1976).
(§2) Fatty acid elongase activity was measured essentially as described in Hlousek-Radojcic, A. et al., Plant J. 8:803–809 (1995). Briefly, the standard elongation reaction mix contained 80 mM Hepes-KOH, pH 7.2, 20 mM MgCl2, 500 μM NADPH, 1 mM ATP, 100 μM malonyl-CoA, 10 μM CoA-SH and 15 μM radioactive acyl-CoA substrate. The radiolabeled substrate was either [1^−14C]18:1-CoA (50 uCi μmol^−1), [1^−14C]18:0-CoA (55 uCi μmol^−1), or [1^−14C]16:0-CoA (54 uCi μmol^−1). The reaction was initiated by the addition of yeast microsomes (5 μg protein) and the mixture incubated at 30° C. for the indicated period of time. The final reaction volume was 25 μl.
(§3) Methyl esters of the acyl-CoA elongation products were prepared as described in Example 1. Methyl esters were separated on reversed phase silica gel KC18 TLC plates (Whatman, […] thick), quantified by phosphorimaging, and analyzed on by ImageQuant software (Molecular Dynamics, Inc., Sunnyvale, Calif.). The detection limit for each product is about 0.001 nanomoles per min. per mg microsomal protein, depending on the phosphorimage exposure time.
(§4) Yeast cultures containing full-length EL1 in λYES and full-length EL2 in pYEUra3 were grown in the presence of galactose or glucose as described in Example 2. Microsomes were then prepared from each of the cultures and fatty acid elongation assays were carried out as described in Example 2.
(§5) In the first experiment, microsomes were prepared from galactose-induced cultures of EL1, EL2 and FAE1, and incubated with either [1-^14C] 18:0 acyl-CoA or [1-^14C] 18:1 acyl-CoA as substrate. The amounts of various reaction products synthesized after 30 minutes (min) were determined as described in Example 2.
In a second experiment, microsomes were prepared from galactose-induced and from glucose-repressed yeast cultures containing EL1 or EL2 coding sequences. The microsomal preparations were incubated with either 18:0 acyl-CoA or 18:1 acyl-CoA as substrate and the fatty acid reaction products determined as described above. […]

[2] = format: biochemical, Saccharomyces cerevisiae; conditions: for (%) 20:1 acyl CoA / (%) 22:1 acyl CoA / (%) 24:1 acyl CoA / (%) 26:1 acyl CoA / (%) Total / Rate, 20:1 acyl CoA / Rate, 22:1 acyl CoA / Rate, 24:1 acyl CoA / Rate, 26:1 acyl CoA / Rate, Total: second experiment
Procedure: as §1, §2, §3, §4, §5
In a second experiment, microsomes were prepared from galactose-induced and from glucose-repressed yeast cultures containing EL1 or EL2 coding sequences. The microsomal preparations were incubated with either 18:0 acyl-CoA or 18:1 acyl-CoA as substrate and the fatty acid reaction products determined as described above.

[3] = 18:0-CoA substrate, +Galactose (induced)
[4] = 18:0-CoA substrate, +Glucose (uninduced)
[5] = 18:0-CoA substrate, galactose-induced, 30 min, first experiment
[6] = +Gal, standard reaction mix, average of two experiments
[7] = +Glu, standard reaction mix, one experiment
[8] = galactose-induced, −A&C (ATP and Coenzyme A omitted), average of two experiments
[9] = galactose-induced, −ATP, average of two experiments
[10] = galactose-induced, −CoA, average of two experiments
[11] = 18:1-CoA substrate, +Galactose (induced)
[12] = 18:1-CoA substrate, +Glucose (uninduced)
[13] = 18:1-CoA substrate, galactose-induced, 30 min, first experiment

B1: EL2: Arabidopsis β-keto acyl synthase gene product (SEQ ID NO:4) expressed in yeast microsomes (protein, listed as Arabidopsis thaliana)
chain: MDYPMKKVKIFFNYLMAHRFKLCFLPLMVAIAVEASRLSTQDLQNFYLYLQNNHTSLTMFFLYLALGSTLYLMTRPKPVYLVDFSCYLPPSHLKASTQRIMQHVRLVREAGAWKQESDYLMDFCEKILERSGLGQETYVPEGLQTLPLQQNLAVSRIETEEVIIGAVDNLFRNTGISPSDIGILVVNSSTFNPTPSLSSILVNKFKLRDNIKSLNLGGMGCSAGVIAIDAAKSLLQVHRNTYALVVSTENITQNLYMGNNKSMLVTNCLFRIGGAAILLSNRSIDRKRAKYELVHTVRVHTGADDRSYECATQEEDEDGIVGVSLSKNLPMVAARTLKINIATLGPLVLPISEKFHFFVRFVKKKFLNPKLKHYIPDFKLAFEHFCIHAGGRALIDEMEKNLHLTPLDVEASRMTLHRFGNTSSSSIWYELAYTEAKGRMTKGDRIWQIALGSGFKCNSSVWVALRNVKPSTNNPWEQCLHKYPVEIDIDLKE
- (%) 20:0 acyl CoA [1, 3]: 43.1%
- (%) 22:0 acyl CoA [1, 3]: 17.8%
- (%) 24:0 acyl CoA [1, 3]: 19.1%
- (%) 26:0 acyl CoA [1, 3]: 20.0%
- (%) Total [1, 3]: 100.0%
- Rate, 20:0 acyl CoA [1, 3]: 0.107 Nanomoles/minute/mg of microsomal protein
- Rate, 22:0 acyl CoA [1, 3]: 0.044 Nanomoles/minute/mg of microsomal protein
- Rate, 24:0 acyl CoA [1, 3]: 0.048 Nanomoles/minute/mg of microsomal protein
- Rate, 26:0 acyl CoA [1, 3]: 0.050 Nanomoles/minute/mg of microsomal protein
- Rate, Total [1, 3]: 0.249 Nanomoles/minute/mg of microsomal protein
- (%) 20:0 acyl CoA [1, 4]: 81.3%
- (%) 22:0 acyl CoA [1, 4]: 5.1%
- (%) 24:0 acyl CoA [1, 4]: 13.6%
- (%) 26:0 acyl CoA [1, 4]: 0.0%
- (%) Total [1, 4]: 100.0%
- Rate, 20:0 acyl CoA [1, 4]: 0.030 Nanomoles/minute/mg of microsomal protein
- Rate, 22:0 acyl CoA [1, 4]: 0.002 Nanomoles/minute/mg of microsomal protein
- Rate, 24:0 acyl CoA [1, 4]: 0.005 Nanomoles/minute/mg of microsomal protein
- Rate, 26:0 acyl CoA [1, 4]: 0.000 Nanomoles/minute/mg of microsomal protein
- Rate, Total [1, 4]: 0.037 Nanomoles/minute/mg of microsomal protein
- effect of omission of ATP and/or CoA on overall amounts of VLCFAs synthesized ([1]; 18:0-CoA substrate, galactose-induced): does not have a significant effect
- (%) 20:0 acyl-CoA product [1, 5]: 41.8%
- (%) 22:0 acyl-CoA product [1, 5]: 20.7%
- (%) 24:0 acyl-CoA product [1, 5]: 20.3%
- (%) 26:0 acyl-CoA product [1, 5]: 17.2%
- (%) Total acyl-CoA products [1, 5]: 100.0%
- Rate, 20:0 acyl-CoA product [1, 5]: 0.108 Nanomoles/minute/mg of microsomal protein
- Rate, 22:0 acyl-CoA product [1, 5]: 0.053 Nanomoles/minute/mg of microsomal protein
- Rate, 24:0 acyl-CoA product [1, 5]: 0.052 Nanomoles/minute/mg of microsomal protein
- Rate, 26:0 acyl-CoA product [1, 5]: 0.044 Nanomoles/minute/mg of microsomal protein
- Rate, Total acyl-CoA products [1, 5]: 0.258 Nanomoles/minute/mg of microsomal protein
- 20:0 product as a percent of total products formed [1, 6]: 47.1%
- 22:0 product as a percent of total products formed [1, 6]: 19.1%
- 24:0 product as a percent of total products formed [1, 6]: 19.4%
- 26:0 product as a percent of total products formed [1, 6]: 14.5%
- Total products as a percent of total products formed [1, 6]: 100.0%
- 20:0 product as a percent of total products formed [1, 7]: 54.5%
- 22:0 product as a percent of total products formed [1, 7]: 17.1%
- 24:0 product as a percent of total products formed [1, 7]: 5.8%
- 26:0 product as a percent of total products formed [1, 7]: 22.6%
- Total products as a percent of total products formed [1, 7]: 100.0%
- increase in overall elongase activity on induction with galactose, 18:0 acyl CoA substrate ([1]; galactose-induced vs glucose): ~7 fold
- 20:0 product as a percent of total products formed [1, 8]: 38.0%
- 22:0 product as a percent of total products formed [1, 8]: 15.9%
- 24:0 product as a percent of total products formed [1, 8]: 18.4%
- 26:0 product as a percent of total products formed [1, 8]: 27.8%
- Total products as a percent of total products formed [1, 8]: 100.0%
- 20:0 product as a percent of total products formed [1, 9]: 34.1%
- 22:0 product as a percent of total products formed [1, 9]: 16.4%
- 24:0 product as a percent of total products formed [1, 9]: 20.8%
- 26:0 product as a percent of total products formed [1, 9]: 28.9%
- Total products as a percent of total products formed [1, 9]: 100.0%
- 20:0 product as a percent of total products formed [1, 10]: 45.3%
- 22:0 product as a percent of total products formed [1, 10]: 19.2%
- 24:0 product as a percent of total products formed [1, 10]: 19.9%
- 26:0 product as a percent of total products formed [1, 10]: 15.8%
- Total products as a percent of total products formed [1, 10]: 100.0%
- 18:0-CoA elongation activity, +Glu ([1]; microsomes from glucose-grown cultures, standard reaction mix): .033 nanomoles/minute/mg of microsomal protein
- increase in 18:1 CoA elongation, microsomes from induced vs uninduced cells [2]: ~2 fold
- (%) 20:1 acyl CoA [2, 11]: 100.0%
- (%) 22:1 acyl CoA [2, 11]: 0.0%
- (%) 24:1 acyl CoA [2, 11]: 0.0%
- (%) 26:1 acyl CoA [2, 11]: 0.0%
- (%) Total [2, 11]: 100.0%
- Rate, 20:1 acyl CoA [2, 11]: 0.089 Nanomoles/minute/mg of microsomal protein
- Rate, 22:1 acyl CoA [2, 11]: 0.000 Nanomoles/minute/mg of microsomal protein
- Rate, 24:1 acyl CoA [2, 11]: 0.000 Nanomoles/minute/mg of microsomal protein
- Rate, 26:1 acyl CoA [2, 11]: 0.000 Nanomoles/minute/mg of microsomal protein
- Rate, Total [2, 11]: 0.089 Nanomoles/minute/mg of microsomal protein
- (%) 20:1 acyl CoA [2, 12]: 100.0%
- (%) 22:1 acyl CoA [2, 12]: 0.0%
- (%) 24:1 acyl CoA [2, 12]: 0.0%
- (%) 26:1 acyl CoA [2, 12]: 0.0%
- (%) Total [2, 12]: 100.0%
- Rate, 20:1 acyl CoA [2, 12]: 0.043 Nanomoles/minute/mg of microsomal protein
- Rate, 22:1 acyl CoA [2, 12]: 0.000 Nanomoles/minute/mg of microsomal protein
- Rate, 24:1 acyl CoA [2, 12]: 0.000 Nanomoles/minute/mg of microsomal protein
- Rate, 26:1 acyl CoA [2, 12]: 0.000 Nanomoles/minute/mg of microsomal protein
- Rate, Total [2, 12]: 0.043 Nanomoles/minute/mg of microsomal protein
- (%) 20:1 acyl-CoA product [2, 13]: 84.1%
- (%) 22:1 acyl-CoA product [2, 13]: 15.9%
- (%) 24:1 acyl-CoA product [2, 13]: 0.0%
- (%) 26:1 acyl-CoA product [2, 13]: 0.0%
- (%) Total acyl-CoA products [2, 13]: 100.0%
- Rate, 20:1 acyl-CoA product [2, 13]: 0.091 Nanomoles/minute/mg of microsomal protein
- Rate, 22:1 acyl-CoA product [2, 13]: 0.017 Nanomoles/minute/mg of microsomal protein
- Rate, 24:1 acyl-CoA product [2, 13]: 0.0 Nanomoles/minute/mg of microsomal protein
- Rate, 26:1 acyl-CoA product [2, 13]: 0.0 Nanomoles/minute/mg of microsomal protein
- Rate, Total acyl-CoA products [2, 13]: 0.108 Nanomoles/minute/mg of microsomal protein

Reference: patent US7038112B2, “Fatty acid elongases” (Miami University, priority 1997, dated 2006)
